Experiments:
[1] = target: ToLCKeV MBP-AC3 fusion protein (Tomato leaf curl Kerala virus-[India:Kerala II:2005]); experiment: sucrose gradient ultracentrifugation + SEC; 10-40% (w/v) sucrose step gradient, 25 mM Tris (pH 8.0), 250 mM NaCl, 2 mM sodium bisulphite, 0.05% Triton X-100, 35,000 rpm 20 h 4°C, against mass markers; gel filtration on Superdex 200 5/150
[2] = target: ToLCKeV MBP-AC1 fusion protein (replication initiator protein, Rep) (Tomato leaf curl Kerala virus-[India:Kerala II:2005])

Work on “ToLCKeV MBP-AC3 fusion protein (natural protein)” yielded a stoichiometry N [1] of 12 to 14 mer and an ATPase activity of AC1 (Rep), release of Pi from [gamma-32P]ATP, with varying MBP-AC3 (increase at 0.02-0.2 pM, reduced at higher AC3: bell shaped curve); increase over Rep alone set as 100% [2] of 80%.
